Experimental data reported in patent publication US7601803 (SCIL PROTEINS, dated 2009).

Molecular target: T1, BSA (UniProt P02769 25-607)
T1 construct: Unconjugated carrier protein used as the control antigen
Assay: concentration-dependent ELISA, BSA coated at 20 µg/ml, detected with tetra-His antibody
Protocol: Specific binding of mutant 12A to the BSA-estradiol-17-hemisuccinate conjugate was assayed by carrying out an ELISA, with increasing concentrations of purified mutant 12A-His-Tag protein being used. Increasing amounts of gamma-II-crystalline wild-type (likewise with His-Tag) were used as control, and binding of both purified proteins to BSA was assayed. The concentration-dependant ELISA was carried out using NUNC-Tm plates. Antigen coating with the BSA-estradiol-17-hemisuccinate conjugate or with BSA was carried out at room temperature overnight. Coating was carried out with in each case 100 µl of antigen at a concentration of 20 µg/ml of PBS pH 7.6. After washing (2×PBS pH 7.6) and blocking the plates (3% Marvel/PBS at 37° C. for 2 h), in each case 1-13 µl of the protein stock solution (concentration 0.63 mg/ml) of purified Mu 12A or gamma-II-crystalline were introduced into a total 100 µl of reaction solution (PBS, 3% Marvel, x µl of protein) and incubated in the wells at 37° C. for 2 h. The secondary antibodies used were the tetra-His antibody from Qiagen in a dilution of 1:3000 and the anti-mouse POD antibody (Sigma) in a dilution of 1:2000. The antibodies were diluted with a 3% strength Marvel/PBS solution and 100 µl were added to the wells and incubated at 37° C. for in each case 1 h. […] No increase was detected using gamma-II-crystalline. […]

T1 sequence (P02769 25-607 limits assumed): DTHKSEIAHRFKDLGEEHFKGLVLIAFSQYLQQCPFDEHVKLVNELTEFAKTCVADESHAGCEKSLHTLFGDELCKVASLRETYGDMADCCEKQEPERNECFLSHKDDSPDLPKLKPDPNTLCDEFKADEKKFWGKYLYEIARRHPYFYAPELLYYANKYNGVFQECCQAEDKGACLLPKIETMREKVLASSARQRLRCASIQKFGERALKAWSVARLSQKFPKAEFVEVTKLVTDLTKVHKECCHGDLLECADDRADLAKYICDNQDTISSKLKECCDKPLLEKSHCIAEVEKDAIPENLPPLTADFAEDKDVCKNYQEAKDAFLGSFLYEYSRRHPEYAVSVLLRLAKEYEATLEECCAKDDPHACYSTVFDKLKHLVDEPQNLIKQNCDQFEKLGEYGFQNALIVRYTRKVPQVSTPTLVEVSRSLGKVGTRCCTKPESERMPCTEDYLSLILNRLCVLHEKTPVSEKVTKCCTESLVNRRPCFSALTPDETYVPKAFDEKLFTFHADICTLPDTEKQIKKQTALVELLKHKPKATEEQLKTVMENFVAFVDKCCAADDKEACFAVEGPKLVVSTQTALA

B1: bovine gamma-II-crystalline wild-type, purified His-Tag protein after expression in pET-20b (other)
chain: MGKITFYEDRGFQGHCYECSSDCPNLQPYFSRCNSIRVDSGCWMLYERPNYQGHQYFLRRGDYPDYQQWMGFNDSIRSCRLIPQHTGTFRMRIYERDDFRGQMSEITDDCPSLQDRFHLTEVHSLNVLEGSWVLYEMPSYRGRQYLLRPGEYRRYLDWGAMNAKVGSLRRVMDFYSDPNSSSVDKLAAALEHHHHHH
notes: Starting protein used as the control, likewise with His-Tag; also called WT; gamma-B-crystalline
binding result: no binding
